This is an account of results in publication PMC9263151, “Structural and biochemical analyses of the flagellar expression regulator DegU from Listeria monocytogenes”.

In data set [1] the target is DNA-binding domain of Listeria monocytogenes DegU (lmDegUDBD) (Listeria monocytogenes ATCC 15313) (UniProt Q6DL91). The data set is described as follows: crystal structure; lmDegUDBD alone, two chains (A and B) in the asymmetric unit; crystals from 22% PEG 3350, 0.1 M Tris pH 8.0, 18 °C; 2.39 Å.
For data set [2] the target is unchanged. The data set is described as follows: cross-linking; 5 μg protein in 20 mM Hepes pH 7.4, 300 mM sodium chloride, 5 mM β-mercaptoethanol with EDC and sulfo-NHS, 5 min at room temperature; SDS-PAGE, Coomassie staining.
Data set [3] addresses T1, lmDegUDBD (Listeria monocytogenes ATCC 15313, UniProt Q6DL91 159-228).
T1 sequence: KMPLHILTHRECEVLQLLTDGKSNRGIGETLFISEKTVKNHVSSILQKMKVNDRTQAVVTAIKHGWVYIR
Briefly: fluorescence polarization. To be noted: protein: recombinant; tags: N-terminal His6 removed by thrombin; chain copies: 2; blunt. (In general: Polarisation of emitted light reports the rotation of a fluorescent probe.)

For data set [4], the target named is lmDegUFL (Listeria monocytogenes ATCC 15313, UniProt Q6DL91 1-228). The data set is described as follows: fluorescence polarization; unphosphorylated. To be noted: protein: recombinant; tags: C-terminal His6; chain copies: 2; blunt.
In data set [5] the target is lmDegUFL D55N (Listeria monocytogenes ATCC 15313, UniProt Q6DL91 1-228, D55N). The data set is described as follows: fluorescence polarization; comparable to lmDegUFL. To be noted: protein: recombinant; tags: C-terminal His6; chain copies: 2; blunt.
The target in data set [6] is lmDegUFL D55E (Listeria monocytogenes ATCC 15313, UniProt Q6DL91 1-228, D55E). The data set is described as follows: fluorescence polarization; affinity not significantly changed vs lmDegUFL. To be noted: protein: recombinant; tags: C-terminal His6; chain copies: 2; blunt.
Data set [7] deals with lmDegURD (Listeria monocytogenes ATCC 15313, UniProt Q6DL91 1-143). The data set is described as follows: EMSA; no shift. To be noted: protein: recombinant; tags: N-terminal His6 removed by TEV; chain copies: 2; blunt. (In general: Mobility shift assays separate free from complexed probe on a gel.)

By stoichiometry N is commonly meant the number of molecules, sites or subunits per partner or assembly. With “DNA-binding domain of Listeria monocytogenes DegU (lmDegUDBD) (from UniProt Q6DL91 159-228) (domain or fragment)”, the stoichiometry N in data set [1] and in data set [2] was 2 throughout.

B1: fliN-gmaR operator 36-bp dsDNA, fluorescein (dsDNA)
DNA 1: CGAGTAGGTCAAAAGGATTGGGTATGAAGAACCTTT
DNA 2: AAAGGTTCTTCATACCCAATCCTTTTGACCTACTCG
A word on the Kd: it is the free concentration of one partner at which half of the binding sites on the other are occupied at equilibrium, for simple one-to-one binding. On to B1, for which the Kd in data set [3] stood at 6.7 ± 2.3 µM; in data set [4], 0.173 ± 0.026 µM. Further, the binding result in data set [5] and in data set [6] was “binds” each time.

B2: fliN-gmaR operator 36-bp dsDNA, unlabeled (dsDNA)
DNA 1: CGAGTAGGTCAAAAGGATTGGGTATGAAGAACCTTT
DNA 2: AAAGGTTCTTCATACCCAATCCTTTTGACCTACTCG
With B2, the binding result in data set [7] is listed as “no binding”.
